Changes are numbered by the printed parent chain. In names and notes the source's numbering stands. Several values for one entry are separate records, joined by “and”; a condition that tells them apart may be missing. Equal entries are not always repeated.

The target of assay [1] is recombinant Factor VIII (CSL627, rVIII-SingleChain) (Homo sapiens (Human)) (UniProt P00451). The assay is described as follows: SPR, anti-His capture, FVIII injected, 37 C. (In SPR one partner is held on a chip, and binding of the other changes the refractive index at the surface.)
The target of assay [2] is T1, recombinant Factor VIII (CSL627, rVIII-SingleChain) (Homo sapiens (Human), UniProt P00451 20-2351).
T1 construct: also called FVIII
T1 sequence: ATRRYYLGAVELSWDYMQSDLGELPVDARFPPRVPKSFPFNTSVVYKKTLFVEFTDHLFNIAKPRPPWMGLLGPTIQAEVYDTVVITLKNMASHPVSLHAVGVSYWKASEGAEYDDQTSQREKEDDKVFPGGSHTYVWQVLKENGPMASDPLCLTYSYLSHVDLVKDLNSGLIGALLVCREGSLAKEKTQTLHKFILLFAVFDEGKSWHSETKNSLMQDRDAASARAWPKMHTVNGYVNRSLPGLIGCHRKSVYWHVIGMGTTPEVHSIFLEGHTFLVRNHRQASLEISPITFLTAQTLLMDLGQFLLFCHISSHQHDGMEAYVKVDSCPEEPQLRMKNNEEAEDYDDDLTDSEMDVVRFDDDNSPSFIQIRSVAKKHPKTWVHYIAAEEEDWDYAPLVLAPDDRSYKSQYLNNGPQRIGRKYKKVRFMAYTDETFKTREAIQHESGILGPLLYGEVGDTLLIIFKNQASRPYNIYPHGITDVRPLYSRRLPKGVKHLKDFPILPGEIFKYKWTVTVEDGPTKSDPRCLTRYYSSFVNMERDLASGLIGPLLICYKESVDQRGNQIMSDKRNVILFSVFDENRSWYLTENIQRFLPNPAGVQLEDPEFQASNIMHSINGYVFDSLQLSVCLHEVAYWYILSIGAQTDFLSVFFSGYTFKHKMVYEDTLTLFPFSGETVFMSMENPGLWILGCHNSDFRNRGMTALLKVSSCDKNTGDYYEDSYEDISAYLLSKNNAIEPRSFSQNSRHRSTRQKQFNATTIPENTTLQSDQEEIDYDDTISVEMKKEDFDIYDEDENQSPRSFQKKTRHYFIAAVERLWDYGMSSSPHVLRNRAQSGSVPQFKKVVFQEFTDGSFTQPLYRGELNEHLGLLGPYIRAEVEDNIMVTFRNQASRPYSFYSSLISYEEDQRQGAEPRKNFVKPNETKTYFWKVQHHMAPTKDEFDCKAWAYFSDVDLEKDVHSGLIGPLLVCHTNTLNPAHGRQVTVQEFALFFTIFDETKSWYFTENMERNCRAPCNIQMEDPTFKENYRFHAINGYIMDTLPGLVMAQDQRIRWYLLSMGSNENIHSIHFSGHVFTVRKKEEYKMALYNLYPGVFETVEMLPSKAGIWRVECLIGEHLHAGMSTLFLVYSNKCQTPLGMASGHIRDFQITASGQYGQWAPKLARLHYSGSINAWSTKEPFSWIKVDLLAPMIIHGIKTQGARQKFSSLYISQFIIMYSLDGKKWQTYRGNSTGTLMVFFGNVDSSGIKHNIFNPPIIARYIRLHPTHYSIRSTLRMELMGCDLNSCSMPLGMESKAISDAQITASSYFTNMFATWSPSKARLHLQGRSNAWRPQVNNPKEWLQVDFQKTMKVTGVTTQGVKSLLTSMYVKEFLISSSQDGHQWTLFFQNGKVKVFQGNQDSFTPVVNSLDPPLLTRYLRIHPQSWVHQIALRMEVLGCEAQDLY
The assay is described as follows: SPR, anti-His capture. How it is done:
Binding kinetics were investigated by surface plasmon resonance using a Biacore 4000 biosensor at 37° C. Each mutant was captured from cell culture medium to a density of 40-150 RU on a CM-5 sensor chip pre-immobilised with anti-His antibody (14,000 RU). In an initial screening study, FVIII was injected over the captured mutants for 5 minutes at 1 nM and dissociation monitored for 5 minutes.
All sensorgrams were double referenced by subtraction of signals from a reference spot (containing only immobilised anti His antibody) and from a blank injection. Binding kinetics were determined by fitting the double referenced sensorgrams to a 1:1 kinetic model.

In assay [3] the target is T2, recombinant Factor VIII (CSL627, rVIII-SingleChain) (Homo sapiens (Human), UniProt P00451 20-2351).
T2 construct: also called FVIII
T2 sequence: T1 sequence
The assay is described as follows: SPR, anti-His capture, FVIII injected, pH 5.5.

The target in assay [4] is T1, recombinant Factor VIII (CSL627, …). The assay is described as follows: SPR, anti-His capture. The procedure, abridged: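 Anti-His antibody (14,000 RU) captures each mutant from culture supernatant to 40-150 RU. Single-concentration FVIII injection (1 nM) over 5 min, then dissociation tracked for 5 min. Kinetics derive from 1:1 fitting after double referencing.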
This is another data set of the same source.

Broadly, the Kd is the constant that tells how readily two partners part at equilibrium. Usually koff stands for a measure of how fast the partners let go of each other. The kon is the second-order rate constant of association. On to “Hu-vWF[764-1270]-8His dupS764/S764P/S766I (from UniProt P04275 767-1270)”, for which, in assay [1], the Kd is 0.255 nM and 0.199 nM; the koff was 0.00159 s⁻¹ and 0.0025 s⁻¹; the kon was 6.23e+06 M⁻¹ s⁻¹ and 1.25e+07 M⁻¹ s⁻¹.

B1: Hu-vWF[764-1270]-8His S764E/S766Y (other)
chain: ELYCRPPMVKLVCPADNLRAEGLECTKTCQNYDLECMSMGCVSGCLCPPGMVRHENRCVALERCPCFHQGKEYAPGETVKIGCNTCVCRDRKWNCTDHVCDATCSTIGMAHYLTFDGLKYLFPGECQYVLVQDYCGSNPGTFRILVGNKGCSHPSVKCKKRVTILVEGGEIELFDGEVNVKRPMKDETHFEVVESGRYIILLLGKALSVVWDRHLSISVVLKQTYQEKVCGLCGNFDGIQNNDLTSSNLQVEEDPVDFGNSWKVSSQCADTRKVPLDSSPATCHNNIMKQTMVDSSCRILTSDVFQDCNKLVDPEPYLDVCIYDTCSCESIGDCACFCDTIAAYAHVCAQHGKVVTWRTATLCPQSCEERNLRENGYECEWRYNSCAPACQVTCQHPEPLACPVQCVEGCHAHCPPGKILDELLQTCVDPEDCPVCEVAGRRFASGKKVTLNPSDPEHCQICHCDVVNLTCEACQEPGGLVVPPTDAPVSPTTLYVEDISEPPLHDFHHHHHHHH
Consider B1, for which, in assay [2], the Kd was 3.87 pM, the dissociation rate constant (koff) stood at 7.64e-05 s⁻¹ and the kon turned out to be 1.97e+07 M⁻¹ s⁻¹.

B2: Hu-vWF[764-1270]-8His S764P-S766W (other)
chain: B1 chain with E1P, Y3W
B2: in assay [3], the Kd was found to be 0.172 nM, the koff was 4.75e-05 s⁻¹ and the on-rate (kon) is 277000 M⁻¹ s⁻¹.

B3: Hu-vWF[764-1270]-8His S764P-S766Y (other)
chain: B1 chain with E1P
As for B3, in assay [4], the Kd was 7.16 pM, the dissociation rate constant (koff) amounted to 7.71e-05 s⁻¹ and the kon was found to be 1.08e+07 M⁻¹ s⁻¹. Besides, in assay [2], the Kd was determined as 7.16 pM, the koff was 7.71e-05 s⁻¹ and the on-rate constant (kon) was determined as 1.08e+07 M⁻¹ s⁻¹.

B4: Hu-vWF[764-1270]-8His S764P-S766L (other)
chain: B1 chain with E1P, Y3L
Turning to B4, in assay [3], the Kd came out at 0.234 nM, the koff came to 0.000104 s⁻¹ and the kon worked out at 445000 M⁻¹ s⁻¹.

B5: Hu-vWF[764-1270]-8His S764K/S766Y (other)
chain: B1 chain with E1K
In the case of B5, in assay [2], the Kd was determined as 43.5 pM, the off-rate constant (koff) was determined as 0.000822 s⁻¹ and the kon was 1.89e+07 M⁻¹ s⁻¹.

B6: Hu-vWF[764-1270]-8His S764M/S766Y (other)
chain: B1 chain with E1M
As to B6, in assay [2], the Kd was 14.4 pM, the off-rate (koff) worked out at 0.000103 s⁻¹ and the kon is 7.15e+06 M⁻¹ s⁻¹.

B7: Hu-vWF[764-1270]-8His S764N/S766Y (other)
chain: B1 chain with E1N
For the molecule B7, in assay [2], the Kd came out at 6.92 pM, the koff came to 8.88e-05 s⁻¹ and the kon amounted to 1.28e+07 M⁻¹ s⁻¹.

B8: Hu-vWF[764-1270]-8His S764Y/S766Y (other)
chain: B1 chain with E1Y
With B8, in assay [2], the dissociation constant Kd is 2.47 pM, the dissociation rate constant (koff) was 7.88e-05 s⁻¹ and the kon is 3.19e+07 M⁻¹ s⁻¹.

B9: Hu-vWF[764-1270]-8His S764P-S766M (other)
chain: B1 chain with E1P, Y3M
As to B9, in assay [3], the Kd was 0.292 nM, the koff worked out at 9.16e-05 s⁻¹ and the on-rate (kon) came out at 314000 M⁻¹ s⁻¹.

B10: Hu-vWF[764-1270]-8His S764H/S766Y (other)
chain: B1 chain with E1H
In the case of B10, in assay [2], the equilibrium dissociation constant (Kd) is 6.39 pM, the koff turned out to be 0.000292 s⁻¹ and the on-rate constant (kon) was 4.56e+07 M⁻¹ s⁻¹.

B11: Hu-vWF[764-1270]-8His S764I/S766Y (other)
chain: B1 chain with E1I
As for B11, in assay [2], the Kd stood at 9.23 pM, the dissociation rate constant (koff) came out at 9.52e-05 s⁻¹ and the kon is 1.03e+07 M⁻¹ s⁻¹.

B12: Hu-vWF[764-1270]-8His S764T/S766Y (other)
chain: B1 chain with E1T
Consider B12, for which, in assay [2], the dissociation constant (Kd) turned out to be 5.27 pM, the dissociation rate constant (koff) was determined as 0.000136 s⁻¹ and the kon was found to be 2.58e+07 M⁻¹ s⁻¹.

B13: Hu-vWF[764-1270]-8His S764F/S766Y (other)
chain: B1 chain with E1F
Regarding B13, in assay [2], the dissociation constant (Kd) is 12.2 pM, the koff came to 9.36e-05 s⁻¹ and the kon was 7.68e+06 M⁻¹ s⁻¹.

B14: Hu-vWF[764-1270]-8His S764R/S766Y (other)
chain: B1 chain with E1R
As to B14, in assay [2], the Kd is 2.85 pM, the koff came to 9.2e-05 s⁻¹ and the kon worked out at 3.23e+07 M⁻¹ s⁻¹.

B15: Hu-vWF[764-1270]-8His S764G/S766Y (other)
chain: B1 chain with E1G
As for B15, in assay [2], the Kd came out at 1.96 pM, the koff stood at 2.69e-05 s⁻¹ and the kon was found to be 1.37e+07 M⁻¹ s⁻¹.

B16: Hu-vWF[764-1270]-8His S764Q/S766Y (other)
chain: B1 chain with E1Q
For B16, in assay [2], the Kd stood at 9.18 pM, the koff amounted to 0.000109 s⁻¹ and the kon turned out to be 1.19e+07 M⁻¹ s⁻¹.

B17: Hu-vWF[764-1270]-8His S764V/S766Y (other)
chain: B1 chain with E1V
Take B17: in assay [2], the dissociation constant Kd was determined as 2.15 pM, the koff turned out to be 6.41e-05 s⁻¹ and the on-rate constant (kon) worked out at 2.99e+07 M⁻¹ s⁻¹.

B18: Hu-vWF[764-1270]-8His S764L/S766Y (other)
chain: B1 chain with E1L
Regarding B18, in assay [2], the Kd was determined as 2.27 pM, the koff amounted to 7.99e-05 s⁻¹ and the on-rate (kon) was 3.52e+07 M⁻¹ s⁻¹.

B19: Hu-vWF[764-1270]-8His S764W/S766Y (other)
chain: B1 chain with E1W
Turning to B19, in assay [2], the equilibrium dissociation constant (Kd) came to 10.9 pM, the off-rate (koff) is 9.67e-05 s⁻¹ and the kon was determined as 8.88e+06 M⁻¹ s⁻¹.

These data come from patent US20190015483A1 (CSL BEHRING RECOMBINANT FACILITY, published 2019).
